In experiment [1] the target is hetero-dimerizing leucine zipper helix from the c-jun subunit of the AP-1 transcription factor. Briefly: cell-based or functional assay.
The next experiment concerns TG1 cells. Briefly: Activation of TEM-1 β-lactamase fragment complementation by disulfide-assisted fos-jun interaction (plating on ampicillin). The format is cell-based, E. coli. To be noted: without a stabilizing peptide; same expression conditions.

Chain of hetero-dimerizing leucine zipper helix from the c-jun subunit of the AP-1 transcription factor (P05412 280-308): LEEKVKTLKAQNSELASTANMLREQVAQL
Protocol for TG1 cells: Cysteines were added to the sequences of α197 and ω198, between the break-point termini and the linkers leading to the heterologous interactors.
Disulfide formation was made to be more dependent on the heterologous interaction by two modifications. First, disulfide formation can be inhibited by inclusion of a reducing agent in the growth medium. […] Secondly, the cysteines were shifted by one residue each away form the break-point and into the β-lactamase sequence, so that they became separated in the native fold by an additional ˜8 Å.

Take “hetero-dimerizing leucine zipper helix from the c-fos subunit of the AP-1 transcription factor (peptide)”: in experiment [1], the Hi Amp (max ampicillin with >10% plating), break-point A227/G228, +Fos/Jun turned out to be 50 µg/mL; the Hi Amp (max ampicillin with >10% plating), break-point A227/G228, +S-S, +Fos/Jun came out at 200 µg/mL; the Hi Amp (max ampicillin with >10% plating), break-point E63/E64, +S-S, +Fos/Jun is 25 µg/mL; the Hi Amp (max ampicillin with >10% plating), break-point E197/L198, +Fos/Jun came out at 50 µg/mL. In experiment [1], the Hi Amp (max ampicillin with >10% plating), break-point E197/L198, +S-S, +Fos/Jun is 100 µg/mL; the Hi Amp (max ampicillin with >10% plating), break-point G253/K254, +Fos/Jun was found to be 50 µg/mL; the Hi Amp (max ampicillin with >10% plating), break-point G253/K254, +S-S, +Fos/Jun is 400 µg/mL; the Hi Amp (max ampicillin with >10% plating), break-point K215/V216, +Fos/Jun turned out to be 25 µg/mL. In experiment [1], this molecule showed a Hi Amp (max ampicillin with >10% plating), break-point K215/V216, +S-S, +Fos/Jun of 100 µg/mL; a Hi Amp (max ampicillin with >10% plating), break-point N52/S53, +S-S, +Fos/Jun of 25 µg/mL; a Hi Amp (max ampicillin with >10% plating), break-point P174/N175, +Fos/Jun of 50 µg/mL; a Hi Amp (max ampicillin with >10% plating), break-point P174/N175, +S-S, +Fos/Jun of 200 µg/mL. Further, in experiment [1], the Hi Amp (max ampicillin with >10% plating), break-point Q99/N100, +S-S, +Fos/Jun was 25 µg/mL; the activation index, break-point P174/N175, fos-jun with disulfide is 1e+07; the activation index, α197/ω198 with break-point cysteines, 10 mM DTT, 100 µg/ml ampicillin was over 1000 fold; the activation index, α197/ω198 with cysteines shifted by one residue, 50 µg/ml ampicillin is over 100000. Besides, in experiment [1], the ampicillin concentration of recovery, α197/ω198 with break-point tri-peptides, strain DH5α is 800 µg/mL; the ampicillin concentration of recovery, α197/ω198 with break-point tri-peptides, strain TG1 came to 400 µg/mL; the plating efficiency on 25 µg/ml ampicillin, wild-type α197-jun + fos-ω198 worked out at 30%; the plating efficiency on 50 µg/ml ampicillin, α197-fos + jun-ω198 alone was 1%. Moreover, in experiment [1], the plating efficiency on 50 µg/ml ampicillin, α197-fos + jun-ω198 with GRE-trxA in trans was 100%; the plating efficiency on 50 µg/ml ampicillin, α197/ω198 with cysteines shifted by one residue is 10%; the plating efficiency on 100 µg/ml ampicillin, wild-type α197-jun + fos-ω198 (colonies per cell) is under 1e-06; the plating efficiency on 400 µg/ml ampicillin, break-point G253/K254, fos-jun with disulfide is over 25%.

B1: wild-type TEM-1 β-lactamase: intact TEM-1 β-lactamase of E. coli (protein, UniProt P62593 24-286, looked up)
Beta-lactamase TEM: HPETLVKVKDAEDQLGARVGYIELDLNSGKILESFRPEERFPMMSTFKVLLCGAVLSRVDAGQEQLGRRIHYSQNDLVEYSPVTEKHLTDGMTVRELCSAAITMSDNTAANLLLTTIGGPKELTAFLHNMGDHVTRLDRWEPELNEAIPNDERDTTMPAAMATTLRKLLTGELLTLASRQQLIDWMEADKVAGPLLRSALPAGWFIADKSGAGERGSRGIIAALGPDGKPSRIVVIYTTGSQATMDERNRQIAEIGASLIKHW
Regarding B1, the “Ampicillin concentration on which cells plate” value in the experiment with TG1 cells was at most 1000 µg/mL.

The values above are taken from patent US7544477B2, “Circularly permutated, interaction-activated proteins” (KaloBios, Inc., priority 2000, dated 2009).
